Experimental data reported in patent US20220204627A1 (WILLIAM ROBERT ARATHOON LIVING TRUST DATED AUGUST 29 2016, published 2022).

Tests used:
human CD47 on cells [1] = target: T1, human CD47 on cells (human, UniProt Q08722 19-323); assay: flow cytometry on 293T_ABCB1_OX cells (anti-CD47 antibody; CD47 is endogenous on 293T cells); 293T_ABCB1_OX cells, endogenous CD47
T1 construct: also called KT14 (target name); leukocyte surface antigen CD47

[2] = target: T2, cynomolgus CD47 on erythrocytes (cynomolgus, UniProt A0A5F8AK49 19-323 (rhesus entry)); assay: flow cytometry on cynomolgus red blood cells (cy807 RBC), Alexa Fluor 647 channel
T2 construct: whole, on cells; also called cynomolgus RBCs

[3] = target: T3, human CD47-Fc fusion protein (R&D systems) (human, UniProt Q08722 19-141); assay: ELISA, plate coated with human CD47-Fc; set-up: Bmax: unit not given here
T3 construct: Bought (R&D systems); also called Fc-tagged CD47; not shown: Fc part of the bought fusion protein

human CD47 on cells [4] = target: T1, human CD47 on cells; assay: flow cytometry on human red blood cells (h408 RBC), Alexa Fluor 647 channel
[5] = target: T4, EGFR on 293T cells overexpressing EGFR (UniProt P00533 25-1210, limits assumed); assay: FACS on 293T-EGFR OX cells
T4 construct: whole, on cells

[6] = target: T4, EGFR on 293T cells overexpressing EGFR; assay: FACS on 293T cells overexpressing EGFR
[7] = target: T5, human P Glycoprotein (Pgp) / Multidrug resistance protein 1 (MDR1), gene ABCB1, on cells (human, UniProt P08183 1-1280); assay: cell-based or functional assay
[8] = target: T5, human P Glycoprotein (Pgp) / Multidrug …; assay: flow cytometry on 293T cells stably expressing human ABCB1 (293T_ABCB1_OX)
[9] = target: T5, human P Glycoprotein (Pgp) / Multidrug …; assay: FACS on 293T-B1OX cells (overexpressing MDR1)
[10] = target: T3, human CD47-Fc fusion protein (R&D …); assay: ELISA, binding to CD47; set-up: Bmax: unit not given here
[11] = target: T3, human CD47-Fc fusion protein (R&D …); assay: ELISA, binding to CD47; 15D3 HC with its own 15D3 LC (un-swapped control); ELISA

B1: anti-CD47 antibody 5F9 (antibody, human IgG1, V domains shown)
VH: QVQLVQSGAEVKKPGASVKVSCKASGYTFTNYNMHWVRQAPGQRLEWMGTIYPGNDDTSYNQKFKDRVTITADTSASTAYMELSSLRSEDTAVYYCARGGYRAMDYWGQGTLVTVSS
VL: DIVMTQSPLSLPVTPGEPASISCRSSQSIVYSNGNTYLGWYLQKPGQSPQLLIYKVSNRFSGVPDRFSGSGSGTDFTLKISRVEADVGVYYCFQGSHVPYTFGQGTKLEIK
notes: Variable regions cloned on human IgG1 / human kappa constant regions; also called 5F9/5F9; KT14
With B1 the EC50 (human CD47 on cells [1]) was 0.3 nM, the “R4 (percent of red blood cells in the positive gate R4)” value [2] was 99.8% and the Bmax [3] was 2.78. The Kd [3] was 0.00197 nM and the “R4 (percent of red blood cells in the positive gate R4)” value (human CD47 on cells [4]) was 99.9%.

B2: anti-EGFR antibody necitumumab (antibody, human IgG1, kappa, V domains shown)
VH: QVQLQESGPGLVKPSQTLSLICTVSGGSISSGDYYWSWIRQPPGKGLEWIGYIYYSGSTDYNPSLKSRVTMSVDTSKNQFSLKVNSVTAADTAVYYCARVSIFGVGTFDYWGQGTLVTVSS
VL: EIVMTQSPATLSLSPGERATLSCRASQSVSSYLAWYQQKPGQAPRLLIYDASNRATGIPARFSGSGSGTDFTLTISSLEPEDFAVYYCHQYGSTPLTFGGGTKAEIKR
notes: Heavy chain copied as printed in T0103; also called KT3-2
In the case of B2, the EC50 [5] is reported as 0.13 nM and the EC50 [6] is reported as 0.044 nM.

B3: anti-MDR1 antibody 15D3 (recombinant, human IgG1/Kappa) (antibody, V domains shown)
VH: EVKVVESGGVLVRPGGSLKLSCAASGFTFSRYTMSWVRQTPEKRLEWVATISSGGGNTYYPDSVKGRFTVSRDNAMSSLYLQMSSLRSEDTALYYCARYGAGDAWFAYWGQGTLVTVSA
VL: DVLMTQTPLSLPVSLGDQASISCRSSQSIVHSTGNTYLEWYLQKPGQSPKLLIYKVSNRFSGVPDRFSGSGSGTDFTLKISRLEAEDLGVYYCFQGSHFPRTFGGGTRLEIK
notes: also called 15D3/15D3
With B3 the “Vincristine IC50 (nM) on N6/ADR cells with antibody at 50 ug/mL” value [7] was 0.466 nM, the EC50 [8] was 14.6 nM and the EC50 [9] was 25.1 nM. The Bmax [10] was 3.2 and the Kd [11] was 10.9 nM.
